Our source for the binding values is paper PMC10448178.

One data set concerns the target T1, MntR (Bacillus subtilis) (UniProt P54512).
T1 sequence: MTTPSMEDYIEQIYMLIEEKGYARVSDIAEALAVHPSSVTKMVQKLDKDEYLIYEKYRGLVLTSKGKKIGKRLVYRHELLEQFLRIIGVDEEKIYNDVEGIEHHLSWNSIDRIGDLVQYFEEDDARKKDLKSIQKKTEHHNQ
The data set can be described thus: EMSA. As to conditions: 10 mM Tris-HCl pH 7.5, 43 mM NaCl, 1 mM MnCl2, 1 mM DTT, 5% glycerol, 1 ug poly[dI-dC] per 14 ul, 23 C 15 min; 5% PAGE in 40 mM Tris-acetate at 4 C.

The target of a further data set is T2, AhrC (Bacillus subtilis) (UniProt P17893).
T2 sequence: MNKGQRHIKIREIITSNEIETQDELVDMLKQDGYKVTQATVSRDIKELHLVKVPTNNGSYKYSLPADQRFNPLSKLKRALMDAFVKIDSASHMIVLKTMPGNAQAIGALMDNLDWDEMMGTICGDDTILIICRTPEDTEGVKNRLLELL
The data set is described as follows: EMSA. The settings on record: 10 mM Tris-HCl pH 7.5, 43 mM NaCl, 1 mM MnCl2, 1 mM DTT, 5% glycerol, 1 ug poly[dI-dC] per 14 ul, 23 C 15 min; 5% PAGE in 40 mM Tris-acetate at 4 C.

For “ATGAAGCTTCAAAGAGTTTCCTTAAGGCAAATTATTTTATCTACATCATATGACCATCCCGGTTTCTTGTCAACCGAAAATGTTCAAAATACACTTCTGAATTTTTCCCTGTTATGTAACATGATATGTAGGGATTCGTGATAAGGTCCCATATAAAAAGACATCGTTTCATTTCGAAACGATGCCTCCTGTATCTAATGAGTCTAGGCTTCCTTCCGCAGCCCGCGGAATATAAGGCCCAGCAAGAACACGAAGATGGCTGCCCCGATGATGGCCGGGA (double strand) [PmntH del1]”, in the data set with MntR (Bacillus subtilis), the binding result is listed as “binds”. “ATGAAGCTTTTATCTACATCATATGACCATCCCGGTTTCTTGTCAACCGAAAATGTTCAAAATACACTTCTGAATTTTTCCCTGTTATGTAACATGATATGTAGGGATTCGTGATAAGGTCCCATATAAAAAGACATCGTTTCATTTCGAAACGATGCCTCCTGTATCTAATGAGTCTAGGCTTCCTTCCGCAGCCCGCGGAATATAAGGCCCAGCAAGAACACGAAGATGGCTGCCCCGATGATGGCCGGGA (double strand) [PmntH del2]”: in the data set with MntR (Bacillus subtilis), the binding entry is “no binding”. For the sequence “CCGAAGCTTTCTCCTAAATCACAGTTTAAATCAATCTGAAACACAGAATCCCTCCTGCCAAAGCAAACGATATGCTTTATGTCATTTATTGTCCCGAAATTCGGAACGACTATTCCGAATTTTTGAACTTTATTTCATTATAAGTGAATCATATCAGTTTGTGAAATACTTTTGTCAGAAAACCTACCATGGTCCCAGAATAAAACCTGCCAAACTAAAAAAGAGAGTCCATCTTAGGACTCTGAATTCGAT (double strand) [PpxpA probe 2]”, the binding entry with AhrC (Bacillus subtilis) is listed as “binds”. Consider “CCGAAGCTTTCTCCTAAATCACAGTTTAAATCAATCTGAAACACAGAATCCCTCCTGCCAAAGCAAACGATATGCTTTATGTCATTTATTGTCCCGAAATTCGGAACGACTATTCCGAATTTTTGAACTTTATTTCATTATAAGTGAATCATATCAGTTTGTGAAATACTTTTGTCAGAAAACCTACCATGGTCCCAGAATAAAACCTGCCAAACTAAAGAATTCGAT (double strand) [PpxpA probe 3]”, for which, in the data set with AhrC (Bacillus subtilis), the binding entry is “binds more weakly”. In the case of “GCGCTTTCAGCGAATGTGTGGAAAAAATGTTTCGTTTTTTATTCGCTGTGTGATTTTGCGTAATATTTACAATTCGATAGAATGCGAGAAGCACTGGTGTCCTTGGGTTTGATGGGATTTTTGGCGGAGCAAATAAATTGGATGAGAGAAAAAGTGTTCCTTCGTCACTATTTTTCTGTGGCGGGTGAATCATGTTTCTGTAGACCCACTGCGGATCAGCTTTGTAAGATAATAATAGGAAAATGTGAGCGAGAGGAGGTTTTGTATGGAGAGATATGATGAACTG (double strand) [PmneS]”, in the data set with AhrC (Bacillus subtilis), the binding result is reported as “binds”. Regarding “TTTAGTTTGGCAGGTTTTATTCTGGGACCATGGTAGGTTTTCTGACAAAAGTATTTCACAAACTGATATGATTCACTTATAATGAAATAAAGTTCAAAAATTCGGAAGCTTCCG (double strand) [PpxpA probe 5]”, the binding result in the data set with AhrC (Bacillus subtilis) is listed as “binds more weakly”.
